Measurements: patent US20180291083A1 (IMMATICS BIOTECHNOLOGIES, published 2018)

The binders below were run against T1, HLA-B*44:02 (human) (assay: UV ligand exchange ELISA; exchange yield grade).
T1 construct: Peptide-receptive MHC class I monomer made by UV cleavage of a UV-sensitive ligand
Source text: Candidate peptides for T cell based therapies according to the present invention were further tested for their MHC binding capacity (affinity). The individual peptide-MHC complexes were produced by UV-ligand exchange, where a UV-sensitive peptide is cleaved upon UV-irradiation, and exchanged with the peptide of interest as analyzed. Only peptide candidates that can effectively bind and stabilize the peptide-receptive MHC molecules prevent dissociation of the MHC complexes. To determine the yield of the exchange reaction, an ELISA was performed based on the detection of the light chain (β2m) of stabilized MHC complexes. The assay was performed as generally described in Rodenko et al. (Rodenko et al., 2006).
96 well MAXISorp plates (NUNC) were coated over night with 2 ug/ml streptavidin in PBS at room temperature, washed 4× and blocked for 1 h at 37° C. in 2% BSA containing blocking buffer. Refolded HLA-A*02:01/MLA-001 monomers served as standards, covering the range of 15-500 ng/ml. Peptide-MHC monomers of the UV-exchange reaction were diluted 100-fold in blocking buffer. Samples were incubated for 1 h at 37° C., washed four times, incubated with 2 ug/ml HRP conjugated anti-β2m for 1 h at 37° C., washed again and detected with TMB solution that is stopped with […]. Absorption was measured at 450 nm. Candidate peptides that show a high exchange yield (preferably higher than 50%, most preferred higher than 75%) are generally preferred for a generation and production of antibodies or fragments thereof, and/or T cell receptors or fragments thereof, as they show sufficient avidity to the MHC molecules and prevent dissociation of the MHC complexes.

| Binder | peptide exchange yield |
| --- | --- |
| SEGDNVESW | 50 to 75% |
| NEIKVYITF | 50 to 75% |
| KEVPRSYEL | 20 to 50% |
| TEIFKEHNF | 20 to 50% |
| AEPLVGQRW | 50 to 75% |
| KEYDFGTQL | 20 to 50% |
| GELLGRQSF | 50 to 75% |
| SESTFDRTF | 50 to 75% |
| EEETILHFF | 20 to 50% |
| GENDRLNHTY | 20 to 50% |
| KEIGAAVQAL | 50 to 75% |
| RENQVLGSGW | 50 to 75% |
| RMPPFTQAF | 20 to 50% |
| NEQKIVRF | 10 to 20% |
| YEYDLKWEF | 50 to 75% |
| KEFFFVKVF | 50 to 75% |
| TEYPVFVY | 10 to 20% |
| VEIAEAIQL | 50 to 75% |
| TEGKRYFTW | 50 to 75% |
| SESLPKEAF | 20 to 50% |
| SENEQRRMF | 50 to 75% |
| VEDGLFHEF | 50 to 75% |
| AEIKQTEEKY | 20 to 50% |

| Binder | peptide exchange yield |
| --- | --- |
| REYNEYENI | 20 to 50% |
| REYEYDLKWEF | 50 to 75% |
| SEYSHLTRV | 20 to 50% |
| GENEDNRIGL | 20 to 50% |
| TDKSFPNAY | 10 to 20% |
| AEPGPVITW | 50 to 75% |
| QENMQIQSF | 50 to 75% |
| SQAPAARAF | 20 to 50% |
| SESKTVVTY | 50 to 75% |
| NEVLASKY | 10 to 20% |
| GELGGSVTI | 50 to 75% |
| VELDLQRSV | 20 to 50% |
| DEAQARAAF | 20 to 50% |
| EENKPGIVY | 20 to 50% |
| AENAVSNLSF | 20 to 50% |
| QEIQSLLTNW | 50 to 75% |
| REYEHYWTEL | 50 to 75% |
| AELLAKELY | 20 to 50% |
| EEWMGLLEY | > 75% |
| EEEHGKGREY | 20 to 50% |
| KELPGVKKY | 20 to 50% |
| SEYADTHYF | 50 to 75% |
| EVDASIFKAW | 20 to 50% |

| Binder | peptide exchange yield |
| --- | --- |
| EENPGKFLF | 50 to 75% |
| FEVESLFQKY | 50 to 75% |
| SEKETVAYF | 50 to 75% |
| AEHNFVAKA | 50 to 75% |
| EENGEVKEL | 20 to 50% |
| AEYKGRVTL | > 75% |
| EEGDTLLHLF | 50 to 75% |
| EEPAFNVSY | 20 to 50% |
| SEDLAVHLY | 20 to 50% |
| KEFEQVPGHL | 20 to 50% |
| SDAQRPSSF | 10 to 20% |
| HEIDGKALFL | 20 to 50% |
| GEGAYGKVF | > 75% |
| GESQDSTTAL | 20 to 50% |
| GEIKEPLEI | 20 to 50% |
| NEFPVIVRL | 50 to 75% |
| EYDLKWEF | 20 to 50% |
| AQNLSIIQY | 20 to 50% |
| EEVTDRSQL | 20 to 50% |
| EEFETIERF | 20 to 50% |
| GELPAVRDL | 20 to 50% |
